The target in the experiment is T1, V5–AURKB, expressed in HEK293T cells (UniProt Q96GD4 1-344).
T1 construct: Aurora kinase B (AURKB), wild type; plasmid pDEST3.1_nV5-AurkB provided by Malumbres [65]; also called Aurora B; Aurora kinase B; source: HEK293T, transfected, in lysate
The experiment in a line: co-IP; immunoprecipitation of V5-AURKB from extracts of HEK293T cells co-transfected with GST-VRK1 or HA-VRK1, WT or kinase-dead; VRK1 detected by immunoblot, quantified. The settings on record: partners not purified.

T1 sequence (Q96GD4 whole entry): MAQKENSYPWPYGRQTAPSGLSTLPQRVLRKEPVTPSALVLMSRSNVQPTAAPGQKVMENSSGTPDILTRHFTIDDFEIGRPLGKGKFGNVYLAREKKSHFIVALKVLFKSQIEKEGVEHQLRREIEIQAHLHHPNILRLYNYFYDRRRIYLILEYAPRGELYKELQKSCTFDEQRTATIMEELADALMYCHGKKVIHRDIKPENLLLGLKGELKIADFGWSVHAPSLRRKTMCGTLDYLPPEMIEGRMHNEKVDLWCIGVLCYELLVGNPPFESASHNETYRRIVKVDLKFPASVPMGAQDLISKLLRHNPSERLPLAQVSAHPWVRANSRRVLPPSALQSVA

B1: HA–VRK1–K179E, kinase-dead, expressed in HEK293T cells (enzyme, human, UniProt Q99986 1-396, looked up)
chain: MPRVKAAQAGRQSSAKRHLAEQFAVGEIITDMAKKEWKVGLPIGQGGFGCIYLADMNSSESVGSDAPCVVKVEPSDNGPLFTELKFYQRAAKPEQIQKWIRTRKLKYLGVPKYWGSGLHDKNGKSYRFMIMDRFGSDLQKIYEANAKRFSRKTVLQLSLRILDILEYIHEHEYVHGDIEASNLLLNYKNPDQVYLVDYGLAYRYCPEGVHKEYKEDPKRCHDGTIEFTSIDAHNGVAPSRRGDLEILGYCMIQWLTGHLPWEDNLKDPKYVRDSKIRYRENIASLMDKCFPEKNKPGEIAKYMETVKLLDYTEKPLYENLRDILLQGLKAIGSKDDGKLDLSVVENGGLKAKTITKKRKKEIEESKEPGVEDTEWSNTQTEEAIQTRSRTRKRVQK
notes: Vaccinia-related kinase 1 (VRK1), kinase-dead mutant K179E; plasmid pCEFL-HA-VRK1-K179E; also called HA–VRK1–KD; pCEFL–HA–VRK1–K179E; source: HEK293T, transfected, in lysate
Consider B1, for which the “fold binding against active VRK1” value is approximately 3 fold.

B2: GST–VRK1 (K179E), kinase inactive, expressed in HEK293T cells (enzyme, human, UniProt Q99986 1-396, looked up)
chain: MPRVKAAQAGRQSSAKRHLAEQFAVGEIITDMAKKEWKVGLPIGQGGFGCIYLADMNSSESVGSDAPCVVKVEPSDNGPLFTELKFYQRAAKPEQIQKWIRTRKLKYLGVPKYWGSGLHDKNGKSYRFMIMDRFGSDLQKIYEANAKRFSRKTVLQLSLRILDILEYIHEHEYVHGDIEASNLLLNYKNPDQVYLVDYGLAYRYCPEGVHKEYKEDPKRCHDGTIEFTSIDAHNGVAPSRRGDLEILGYCMIQWLTGHLPWEDNLKDPKYVRDSKIRYRENIASLMDKCFPEKNKPGEIAKYMETVKLLDYTEKPLYENLRDILLQGLKAIGSKDDGKLDLSVVENGGLKAKTITKKRKKEIEESKEPGVEDTEWSNTQTEEAIQTRSRTRKRVQK
notes: Vaccinia-related kinase 1 (VRK1), kinase-dead mutant K179E; also called GST-VRK1 KD; kinase-dead VRK1 (K179E); source: HEK293T, transfected, in lysate
Turning to B2, the “fold binding against active VRK1” value is approximately 3 fold.

The record behind these values is paper PMC6003988, “VRK1 and AURKB form a complex that cross inhibit their kinase activity and the phosphorylation of histone H3 in the progression of mitosis” (Cellular and Molecular Life Sciences: CMLS, 2018).
